Assay results published in US20220017615A1 (SHANGHAI PHARMAEXPLORER, published 2022).

How the values were obtained:
[1] = biological target: T1, His-tagged CD47 recombinant protein, CD47-His (human, UniProt Q08722 19-141, limits assumed); test: ELISA on coated CD47-His; Ab 2.667 nM
T1 construct: it is not restated for CD47-His; also called human CD47-His protein; antigen CD47-His; not shown: His tag

[2] = biological target: T2, biotin-labeled CD47 extracellular domain protein (CD47-ECD) (UniProt Q08722 19-139, limits assumed, biotin-labeled (sites not given)); test: blocking ELISA, biotin-CD47-ECD on coated SIRPα-hFc; Ab 200 nM
T2 construct: extracellular domain; also called CD47 protein

[3] = biological target: T2, biotin-labeled CD47 extracellular …; test: blocking ELISA, biotin-CD47-ECD on coated SIRPα-hFc; Ab 1.6 nM
[4] = biological target: T3, cynomolgus CD47, on CHOK1-cCD47 stable cell line (cynomolgus); test: FACS CHOK1-cCD47; Ab 1.6 nM
T3 construct: whole, on cells; check before use; also called CHOK1/cynoCD47; monkey-derived CD47
Protocol: (§1) The CHOK1-hCD47 stable cell lines and CHOK1-cCD47 stable cell lines were expanded to 90% confluence in a T-75 cell culture flask, the medium was exhausted, washed twice with HBSS buffer (Hanks balanced salt solution) (purchased from Invitrogen), and then treated and collected with enzyme-free cell dissociation solution (Versene solution: purchased from Life technology). The cells were washed twice with HBSS buffer. After counted, the cells were diluted with HBSS to 2×10⁶ cells per ml, added with 1% goat serum blocking solution, wherein the percentage was the mass percantage, incubated on ice for 30 minutes, and then washed twice with HBSS by centrifugation. […] The plate was washed 3 times with FACS buffer by centrifugation, added with 100 μl fixative solution [4% (v/v) Paraformaldehyde] per well to suspend the cells. 10 minutes later, it was washed twice with FACS buffer by centrifugation. The cells were suspended with 100 microliters of FACS buffer, FACS (FACS Calibur, purchased from BD) was used for detection and the results were analyzed.

[5] = biological target: T3, cynomolgus CD47, on CHOK1-cCD47 stable …; test: FACS CHOK1-cCD47; Ab 40 nM
Protocol: as §1

[6] = biological target: T4, human CD47, full length, on transfected cells (human, UniProt Q08722 19-323); test: FACS CHOK1-hCD47; Ab 200 nM
T4 construct: whole, on cells; also called CHOK1-hCD47
Protocol: as §1

[7] = biological target: T1, His-tagged CD47 recombinant protein, …; test: ELISA on coated CD47-His; Ab 0.004 nM
[8] = biological target: T1, His-tagged CD47 recombinant protein, …; test: ELISA on coated CD47-His; Ab 0.107 nM
Protocol: (§2) The plate was sealed with plastic film and incubated at 4° C. overnight. The plate was washed twice with plate washing solution [PBS+0.01% (v/v) Tween20] the next day, and blocking solution [PBS+0.01% (v/v) Tween20 +1% (w/w) BSA] was added to block it at room temperature for 2 hours. […] After incubation at 37° C. for 2 hours, the plates were washed three times with plate washing solution [PBS+0.01% (v/v) Tween 20]. HRP (horseradish peroxidase) labeled secondary antibody (purchased from Sigma) was added, incubated at 37° C. for 2 hours, and then washed three times with plate washing solution [PBS+0.01% (v/v) Tween 20]. 1000 of TMB substrate was added to each well. After incubated at room temperature for 30 minutes, the plate was added with 100 μl of stop solution (1.0N HCl) to each well.

[9] = biological target: T1, His-tagged CD47 recombinant protein, …; test: ELISA on coated CD47-His; Ab 66.667 nM
Protocol: as §2

[10] = biological target: T1, His-tagged CD47 recombinant protein, …; test: ELISA on coated CD47-His; Ab 0.533 nM
Protocol: as §2

[11] = biological target: T4, human CD47, full length, on transfected …; test: FACS CHOK1-hCD47; Ab 1.6 nM
Protocol: as §1

[12] = biological target: T1, His-tagged CD47 recombinant protein, …; test: ELISA on coated CD47-His; Ab 13.333 nM
Protocol: as §2

[13] = biological target: T4, human CD47, full length, on transfected …; test: FACS CHOK1-hCD47; Ab 0 nM (background)
Protocol: as §1

[14] = biological target: T1, His-tagged CD47 recombinant protein, …; test: ELISA on coated CD47-His; Ab 0 nM (background)
[15] = biological target: T4, human CD47, full length, on transfected …; test: FACS CHOK1-hCD47; Ab 0.32 nM
Protocol: as §1

[16] = biological target: T1, His-tagged CD47 recombinant protein, …; test: ELISA on coated CD47-His; Ab 0.021 nM
Protocol: as §2

[17] = biological target: T2, biotin-labeled CD47 extracellular …; test: blocking ELISA, biotin-CD47-ECD on coated SIRPα-hFc; Ab 40 nM
Protocol: (§3) The plate was sealed with plastic film and incubated at 4° C. overnight. The plate was washed twice with plate washing solution [PBS+0.01% (v/v) Tween20] on the next day, and blocking solution [PBS+0.01% (v/v) Tween20 +1% (w/w) BSA] was added to block it at room temperature for 2 hours. […] After incubation at 37° C. for 2 hours, the plate was washed three times with the plate washing solution [PBS+0.01% (v/v) Tween 20]. HRP (horseradish peroxidase) labeled avidin diluent (purchased from Sigma) was added as 100 microliters per well, and after the plate was incubated for 2 hours at 37° C., it was washed 3 times with washing solution [PBS+0.01% (v/v) Tween 20]. 100 μl of TMB substrate was added to each well. After incubated at room temperature for 30 minutes, the plate was added with 100 μl of stop solution (1.0N HCl) to each well.

[18] = biological target: T4, human CD47, full length, on transfected …; test: FACS CHOK1-hCD47; Ab 0.064 nM
Protocol: as §1

[19] = biological target: T3, cynomolgus CD47, on CHOK1-cCD47 stable …; test: FACS CHOK1-cCD47; Ab 0.0128 nM
Protocol: as §1

[20] = biological target: T2, biotin-labeled CD47 extracellular …; test: blocking ELISA, biotin-CD47-ECD on coated SIRPα-hFc; Ab 0.32 nM
Protocol: as §3

[21] = biological target: T3, cynomolgus CD47, on CHOK1-cCD47 stable …; test: FACS CHOK1-cCD47; Ab 8 nM
Protocol: as §1

[22] = biological target: T2, biotin-labeled CD47 extracellular …; test: blocking ELISA, biotin-CD47-ECD on coated SIRPα-hFc; Ab 8 nM
[23] = biological target: T3, cynomolgus CD47, on CHOK1-cCD47 stable …; test: FACS CHOK1-cCD47; Ab 0 nM (background)
[24] = biological target: T3, cynomolgus CD47, on CHOK1-cCD47 stable …; test: FACS CHOK1-cCD47; Ab 0.064 nM
Protocol: as §1

[25] = biological target: T2, biotin-labeled CD47 extracellular …; test: blocking ELISA, biotin-CD47-ECD on coated SIRPα-hFc; Ab 0.0128 nM
Protocol: as §3

[26] = biological target: T4, human CD47, full length, on transfected …; test: FACS CHOK1-hCD47; Ab 0.0128 nM
Protocol: as §1

[27] = biological target: T4, human CD47, full length, on transfected …; test: FACS CHOK1-hCD47; Ab 8 nM
Protocol: as §1

[28] = biological target: T2, biotin-labeled CD47 extracellular …; test: blocking ELISA, biotin-CD47-ECD on coated SIRPα-hFc; Ab 0 nM
Protocol: as §3

[29] = biological target: T3, cynomolgus CD47, on CHOK1-cCD47 stable …; test: FACS CHOK1-cCD47; Ab 0.32 nM
[30] = biological target: T2, biotin-labeled CD47 extracellular …; test: blocking ELISA, biotin-CD47-ECD on coated SIRPα-hFc; Ab 0.064 nM
Protocol: as §3

[31] = biological target: T4, human CD47, full length, on transfected …; test: FACS CHOK1-hCD47; Ab 40 nM
Protocol: as §1

[32] = biological target: T3, cynomolgus CD47, on CHOK1-cCD47 stable …; test: FACS CHOK1-cCD47; Ab 200 nM

| Binder | OD450 nm [1] | OD450 nm of CD47 bound to SIRPα [2] | OD450 nm of CD47 bound to SIRPα [3] | mean fluorescence intensity [4] | mean fluorescence intensity [5] | mean fluorescence intensity [6] | OD450 nm [7] | OD450 nm [8] | OD450 nm [9] | OD450 nm [10] | mean fluorescence intensity [11] | OD450 nm [12] | mean fluorescence intensity [13] | OD450 nm [14] | mean fluorescence intensity [15] | OD450 nm [16] | OD450 nm of CD47 bound to SIRPα [17] | mean fluorescence intensity [18] | mean fluorescence intensity [19] | OD450 nm of CD47 bound to SIRPα [20] | further results |
| --- | --- | --- | --- | --- | --- | --- | --- | --- | --- | --- | --- | --- | --- | --- | --- | --- | --- | --- | --- | --- | --- |
| 25E3B5 (antibody, V domains shown, Murine hybridoma antibody purified on protein G) VH: QVQLQQPGTALVRPGSSVKLSCKASGYTFTSYWMHWVRQRPIKGLEWIGNIDPSDSETHYNQRFKDKVTLTVDKSSNTAYMQLSSLTSEDSAVYYCARWKYHGIGAMDYWGQGTSVTVSS VL: DVQITQSPSYLAASPGETVTISCRTNRNISKFLAWYQEKPGKTNKLLIYSGSTLHSGIPSRFSGSGSGTDFTLTISRLEPEDFAMYYCQQHNEYPWSFGGGTKLEIK | 3.02 | 0.06 | 0.18 | 7400 | 9760 | 9420 | 0.14 | 1.68 | 2.89 | 2.91 | 4430 | 2.96 | 22.9 | 0.05 | 1560 | 0.46 | 0.06 | 386 | 422 | 1.06 | mean fluorescence intensity [21]: 13200; OD450 nm of CD47 bound to SIRPα [22]: 0.07; mean fluorescence intensity [23]: 83.5; mean fluorescence intensity [24]: 1450; OD450 nm of CD47 bound to SIRPα [25]: 2.79; mean fluorescence intensity [26]: 120; mean fluorescence intensity [27]: 7020; OD450 nm of CD47 bound to SIRPα [28]: 2.91; mean fluorescence intensity [29]: 4550; OD450 nm of CD47 bound to SIRPα [30]: 2.5; mean fluorescence intensity [31]: 9790; mean fluorescence intensity [32]: 7040 |
| 20H4G5 (antibody, V domains shown, Murine hybridoma antibody purified on protein G) VH: QVQLQQPGAELVRPGSSVRLSCVTSGYTFTSHWMHWVKQGPIKGLEWIGNIDPSDSETHYNQKFKDKATLTVDKSSSTAYMQLSRLTSDDSAVYYCARWRHLGIGAMDYWGQGTSVIVSS VL: DVQITQSPSYLAASPGETITINCRASKNISKFLAWYQAKPGKSNNLLIYSGSTLQSGIPSRFSGSGSGTDFTLTISRLEPEDFAMYYCQQHNEYPWTFGGGTKLEIK | 3.01 | 0.07 | 0.16 | 9450 | 13400 | 6550 | 0.31 | 2.61 | 2.9 | 3.02 | 6160 | 2.94 | 23.1 | 0.05 | 2980 | 1.15 | 0.07 | 759 | 343 | 0.68 | mean fluorescence intensity [21]: 16400; OD450 nm of CD47 bound to SIRPα [22]: 0.08; mean fluorescence intensity [23]: 81.2; mean fluorescence intensity [24]: 998; OD450 nm of CD47 bound to SIRPα [25]: 2.81; mean fluorescence intensity [26]: 233; mean fluorescence intensity [27]: 8470; OD450 nm of CD47 bound to SIRPα [28]: 2.9; mean fluorescence intensity [29]: 3310; OD450 nm of CD47 bound to SIRPα [30]: 2.29; mean fluorescence intensity [31]: 9520; mean fluorescence intensity [32]: 16500 |
